Measurements: the supplement of paper PMC10724198
± gives the standard deviation of the averaged measurements.

Key:
[1] = test system: Saccharomyces cerevisiae; assay: protein stability index of tFT-peptide fusion (C-terminal peptide) (PSI (0-1 scale)); higher = more stable (slower turnover)
Procedure: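 MPS profiling in S. cerevisiae of the tFT-X12 degron library: putative degron peptides plus stable controls, 12 aa, fused to the C-terminus of a sfGFP-mCherry timer. Cells are FACS-sorted into 8 mCherry/sfGFP bins and deep-sequenced. PSI runs from 0 (unstable) to 1 (stable). Backgrounds are wild type, das1Δ and doa10Δ at 30 °C, and wild type, das1Δ, cdc34-1 and cdc53-1 at 37 °C; 2-3 technical replicates each.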

[2] = test system: Saccharomyces cerevisiae; assay: as above; conditions: genetic background: wild type; temperature: 30 C
[3] = genetic background: cdc34-1, temperature: 37 C
[4] = genetic background: cdc53-1, temperature: 37 C
[5] = genetic background: das1 deletion, temperature: 30 C
[6] = genetic background: das1 deletion, temperature: 37 C
[7] = genetic background: doa10 deletion, temperature: 30 C
[8] = genetic background: wild type, temperature: 30 C
[9] = genetic background: wild type, temperature: 37 C
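Further: PSI is a weighted mean of sequencing reads over stability bins, variants kept only with over 10 reads, mCherry proximal and sfGFP distal, peptide attached via GGGS linker.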

Row | Sequence | protein stability index [1, 3] | protein stability index [1, 4] | protein stability index [1, 5] | protein stability index [1, 6] | protein stability index [1, 7] | protein stability index [1, 8] | protein stability index [1, 9] | protein stability index [2]
1 | LLFCFSVILFTC | 0.0922 ± 0.0021 | 0.189 ± 0.062 | 0.187 ± 0.033 | 0.291 ± 0.018 | 0.0562 ± 0.022 | 0.0652 ± 0.018 | 0.0808 ± 0.0077 | 0.147 ± 0.018
2 | LLMCCLPFLWVF | 0.409 ± 0.033 | 0.432 ± 0.011 | 0.328 ± 0.039 | 0.4679 ± 0.0022 | 0.2085 ± 0.002 | 0.228 ± 0.022 | 0.316 ± 0.0053 | 0.306 ± 0.021
3 | LLRFFPLLLFSF | 0.135 ± 0.048 | 0.114 ± 0.01 | 0.213 ± 0.03 | 0.278 ± 0.02 | 0.181 ± 0.0067 | 0.116 ± 0.016 | 0.159 ± 0.013 | 0.122 ± 0.083
4 | LLSPFLLMLLFL | 0.4001 ± 0.0019 | 0.395 ± 0.0071 | 0.344 ± 0.007 | 0.432 ± 0.0046 | 0.221 ± 0.01 | 0.2 ± 0.02 | 0.317 ± 0.013 | 0.28 ± 0.004
5 | LLTGRFRILLVV | 0.0537 ± 0.0092 | 0.0715 ± 0.0019 | 0.176 ± 0.019 | 0.276 ± 0.004 | 0.0579 ± 0.017 | 0.0444 ± 0.0073 | 0.0674 ± 0.026 | 0.0704 ± 0.021
6 | LLVRYRRALVLL | 0.338 ± 0.0093 | 0.412 ± 0.018 | 0.425 ± 0.025 | 0.53 ± 0.023 | 0.0924 ± 0.015 | 0.0953 ± 0.036 | 0.131 ± 0.033 | 0.142 ± 0.051
7 | LLVRYYLFYVLV | 0.357 ± 0.018 | 0.442 ± 0.02 | 0.316 ± 0.048 | 0.477 ± 0.014 | 0.255 ± 0.0062 | 0.243 ± 0.024 | 0.391 ± 0.0082 | 0.351 ± 0.013
8 | LMLISFLFLSLL | 0.487 ± 0.053 | 0.461 ± 0.021 | 0.448 ± 0.023 | 0.529 ± 0.031 | 0.568 ± 0.031 | 0.397 ± 0.023 | 0.48698 ± 5.5e-05 | 0.466 ± 0.056
9 | LPALPFPIPTFA | 0.0567 ± 0.00074 | 0.0586 ± 0.0097 | 0.186 ± 0.027 | 0.201 ± 0.005 | 0.134 ± 0.0084 | 0.173 ± 0.031 | 0.179 ± 0.01 | 0.243 ± 0.053
10 | LPLSPPPLPSSR | 0.6697 ± 0.0028 | 0.72639 ± 0.00044 | 0.634 ± 0.019 | 0.704 ± 0.014 | 0.639 ± 0.022 | 0.663 ± 0.032 | 0.675 ± 0.018 | 0.432 ± 0.032
11 | LPSLPPPPPPPP | 0.675 ± 0.071 | 0.717 ± 0.018 | 0.673 ± 0.044 | 0.732 ± 0.024 | 0.654 ± 0.025 | 0.647 ± 0.016 | 0.687 ± 0.0092 | 0.498 ± 0.039
12 | LPVSLWLVCSFF | 0.524 ± 0.009 | 0.543 ± 0.02 | 0.432 ± 0.023 | 0.5682 ± 0.00058 | 0.345 ± 0.023 | 0.358 ± 0.03 | 0.5283 ± 0.0021 | 0.324 ± 0.0038
13 | LQLGFCFVAQFI | 0.6346 ± 0.0062 | 0.675 ± 0.02 | 0.491 ± 0.035 | 0.6394 ± 0.0044 | 0.462 ± 0.03 | 0.476 ± 0.024 | 0.607 ± 0.02 | 0.509 ± 0.03
14 | LQNCRVSVLLGW | 0.5443 ± 0.0023 | 0.616 ± 0.011 | 0.485 ± 0.019 | 0.6275 ± 0.0042 | 0.229 ± 0.0028 | 0.246 ± 0.036 | 0.4536 ± 0.0025 | 0.367 ± 0.033
15 | LRFYLLTPPSPA | 0.59 ± 0.022 | 0.6288 ± 0.0054 | 0.481 ± 0.024 | 0.631 ± 0.0089 | 0.469 ± 0.017 | 0.494 ± 0.02 | 0.586 ± 0.029 | 0.54 ± 0.061
16 | LRKARLFLKAKC | 0.645 ± 0.031 | 0.678 ± 0.041 | 0.497 ± 0.032 | 0.705 ± 0.0046 | 0.17 ± 0.022 | 0.219 ± 0.017 | 0.384 ± 0.0047 | 0.323 ± 0.03
17 | LRLCMVFAWFLT | 0.388 ± 0.011 | 0.508 ± 0.039 | 0.351 ± 0.029 | 0.493 ± 0.021 | 0.1836 ± 0.00086 | 0.216 ± 0.03 | 0.3924 ± 0.0028 | 0.337 ± 0.023
18 | LRLEFRTNWFLQ | 0.557 ± 0.042 | 0.7363 ± 0.0049 | 0.654 ± 0.015 | 0.752 ± 0.017 | 0.101 ± 0.016 | 0.132 ± 0.0047 | 0.402 ± 0.0072 | 0.2 ± 0.0067
19 | LRVVLVEWMCVV | 0.248 ± 0.017 | 0.295 ± 0.036 | 0.274 ± 0.037 | 0.418 ± 0.0054 | 0.172 ± 0.011 | 0.21 ± 0.023 | 0.358 ± 0.011 | 0.33 ± 0.03
20 | LRVVVGLCMCVL | 0.4743 ± 0.00078 | 0.503 ± 0.007 | 0.396 ± 0.024 | 0.516 ± 0.0088 | 0.385 ± 0.014 | 0.395 ± 0.019 | 0.4884 ± 0.0035 | 0.453 ± 0.015

Row | Sequence | protein stability index [1, 3] | protein stability index [1, 4] | protein stability index [1, 5] | protein stability index [1, 6] | protein stability index [1, 7] | protein stability index [1, 8] | protein stability index [1, 9] | protein stability index [2]
21 | LSCCIVLLIIFV | 0.245 ± 0.021 | 0.35 ± 0.021 | 0.27 ± 0.026 | 0.39762 ± 0.00019 | 0.253 ± 0.0077 | 0.262 ± 0.029 | 0.341 ± 0.025 | 0.338 ± 0.055
22 | LSFLLLLGCFGS | 0.5966 ± 0.0035 | 0.6236 ± 0.0046 | 0.476 ± 0.019 | 0.59 ± 0.027 | 0.453 ± 0.017 | 0.462 ± 0.014 | 0.589 ± 0.018 | 0.466 ± 0.076
23 | LSGVLFSLIRFY | 0.587 ± 0.06 | 0.636 ± 0.011 | 0.517 ± 0.03 | 0.696 ± 0.008 | 0.274 ± 0.015 | 0.287 ± 0.032 | 0.495 ± 0.015 | 0.383 ± 0.036
24 | LSLWLFRILSVR | 0.4052 ± 0.0027 | 0.451 ± 0.017 | 0.335 ± 0.023 | 0.4987 ± 0.0027 | 0.342 ± 0.0045 | 0.341 ± 0.012 | 0.4906 ± 0.0043 | 0.4439 ± 0.0026
25 | LSPPLRHRLTPP | 0.675 ± 0.014 | 0.729 ± 0.022 | 0.687 ± 0.032 | 0.712 ± 0.029 | 0.67109 ± 0.00013 | 0.669 ± 0.015 | 0.6731 ± 0.0065 | 0.715 ± 0.047
26 | LSVRLYRTVFLV | 0.359 ± 0.044 | 0.603 ± 0.016 | 0.53 ± 0.02 | 0.6697 ± 0.0046 | 0.0603 ± 0.012 | 0.0721 ± 0.0073 | 0.0864 ± 0.023 | 0.148 ± 0.02
27 | LSVYGFYKMPAG | 0.501 ± 0.024 | 0.5271 ± 0.0027 | 0.487 ± 0.011 | 0.561 ± 0.018 | 0.521 ± 0.032 | 0.491 ± 0.0073 | 0.5368 ± 0.0015 | 0.502 ± 0.031
28 | LVAGFVFIFFYR | 0.356 ± 0.053 | 0.488 ± 0.021 | 0.339 ± 0.033 | 0.49 ± 0.018 | 0.298 ± 0.0043 | 0.319 ± 0.022 | 0.46 ± 0.0078 | 0.372 ± 0.059
29 | LVCLTPPPSPFS | 0.689 ± 0.021 | 0.799 ± 0.065 | 0.323 ± 0.04 | 0.5136 ± 0.0026 | 0.313 ± 0.009 | 0.332 ± 0.016 | 0.486 ± 0.021 | 0.412 ± 0.033
30 | LVDPFAALRHVV | 0.624 ± 0.026 | 0.768 ± 0.0078 | 0.709 ± 0.016 | 0.71 ± 0.013 | 0.15 ± 0.014 | 0.173 ± 0.024 | 0.3825 ± 0.0015 | 0.246 ± 0.0088
31 | LVGWSWRGWFVV | 0.512 ± 0.029 | 0.6899 ± 0.0065 | 0.6201 ± 0.0015 | 0.769 ± 0.015 | 0.0763 ± 0.011 | 0.094 ± 0.029 | 0.112 ± 0.012 | 0.139 ± 0.025
32 | LVIFSLLFSFSH | 0.22 ± 0.011 | 0.325 ± 0.047 | 0.212 ± 0.032 | 0.394 ± 0.018 | 0.194 ± 0.0075 | 0.232 ± 0.015 | 0.3837 ± 0.00069 | 0.32 ± 0.028
33 | LVLVVFCPLWFW | 0.483 ± 0.035 | 0.581 ± 0.024 | 0.401 ± 0.037 | 0.5794 ± 0.0036 | 0.4422 ± 0.00092 | 0.388 ± 0.0094 | 0.56 ± 0.024 | 0.43567 ± 0.00031
34 | LVPLSLLLCFFV | 0.515 ± 0.027 | 0.5647 ± 0.0036 | 0.411 ± 0.028 | 0.551 ± 0.0063 | 0.178 ± 0.0019 | 0.205 ± 0.015 | 0.354 ± 0.0088 | 0.3058 ± 0.0028
35 | LWAPFWVSRVTA | 0.481 ± 0.017 | 0.513 ± 0.0085 | 0.408 ± 0.035 | 0.5677 ± 0.0039 | 0.21 ± 0.004 | 0.247 ± 0.026 | 0.42 ± 0.0086 | 0.347 ± 0.012
36 | LWGLVWGGVWGV | 0.683 ± 0.039 | 0.722 ± 0.013 | 0.564 ± 0.014 | 0.729 ± 0.012 | 0.5683 ± 0.0018 | 0.573 ± 0.015 | 0.705 ± 0.0096 | 0.439 ± 0.015
37 | LYRIETLFMRAQ | 0.353 ± 0.029 | 0.41 ± 0.022 | 0.435 ± 0.035 | 0.407 ± 0.035 | 0.389 ± 0.059 | 0.358 ± 0.019 | 0.354 ± 0.019 | 0.383 ± 0.021
38 | LYVQSVCFSVPR | 0.463 ± 0.024 | 0.537 ± 0.017 | 0.445 ± 0.021 | 0.5091 ± 0.002 | 0.497 ± 0.052 | 0.431 ± 0.012 | 0.486 ± 0.0089 | 0.422 ± 0.012
39 | MALAVRVVLCGA | 0.0507 ± 0.0085 | 0.0673 ± 0.038 | 0.165 ± 0.026 | 0.192 ± 0.0025 | 0.116 ± 0.029 | 0.153 ± 0.0088 | 0.168 ± 0.0051 | 0.236 ± 0.034
